From PMC2736913

Target: Protein encoded by the control plasmid pGBKT7-53
Experiment: two-hybrid

Protein encoded by the control plasmid pGADT7-T (domain or fragment)
α-gal activity, fold over baseline (fold over baseline): > 35000
